The source of these data is patent US11053304 (CENTIVAX, dated 2021).

Read-outs that look alike come from different tables or passages of the source.

Experiment in all cases: SPR, scFv captured via anti-V5, RBD as analyte
For assay [1], the target named is T1, SARS-CoV-2 Receptor Binding Domain (RBD) protein (SARS-CoV-2, UniProt P0DTC2 319-541).
For assay [2], the target named is SARS-CoV-1 Receptor Binding Domain (RBD) protein (SARS-CoV-1, UniProt P59594 306-527).
In assay [3] the target is MERS Receptor Binding Domain (RBD) protein (MERS coronavirus, UniProt K9N5Q8 367-606).
Assay [4] concerns the target T1, SARS-CoV-2 Receptor Binding Domain …. The source holds these as a separate data set.

B1: COVID19_P19_C12 (scFv, V domains shown)
VH: EVQLVESGGGLVQPGGSLRLSCAASGFTFRNYAMHWVRQAPGKGLEWVSAVSSSGGSPYYADSVKGRFTISRDNSKNTLYLQMNSLRAEDTAVYYCVTNMDNSRDYFPHYFHDMDVWGQGTLVTVSS
VL: DIVMTQSPLSLPVTPGEPASISCRSSQSLVHSDGDNYLNWYLQKPGQSPQLLIYSGSYRASGVPDRFSGSGSGTDFTLKISRVEAEDVGVYYCMQGTHWPLTFGGGTKVEIKR
B1 gave an equilibrium dissociation constant (Kd) in assay [1] below 0.05 µM. Also, the binding result in assay [2] and in assay [3] was “no binding (tested: up to 300 nM)” throughout.

B2: COVID19_P08_H09 (scFv, V domains shown)
VH: EVQLVESGGGLVQPGGSLRLSCAASGFTFSDYALHWVRQAPGKGLEWVSGVSWNGSRTHYADSVKGRFTISRDNSKNTLYLQMNSLRAEDTAVYYCVTNMDNSRDYFPHYFHDMDVWGQGTLVTVSS
VL: not shown
Consider B2, for which the binding result in assay [2] is reported as “no binding (tested: up to 300 nM)”. Further, the binding result in assay [3] is on record as “no binding (tested: up to 300 nM)”. For the same molecule, in assay [4], binding was characterised by a dissociation constant (Kd) of 0.0011 µM, the off-rate (koff) was determined as 5.7e-05 s⁻¹ and the on-rate constant (kon) was found to be 51000 M⁻¹ s⁻¹.

B3: COVID19_P20_F02 (scFv, V domains shown)
VH: EVQLVESGGGLVQPGGSLRLSCAASGFAFSNYGMHWIRQAPGKGLEWVSGIDGSGGTAHYADSVKGRFTISRDNSKNTLYLQMNSLRAEDTAVYYCVTNMDNSRDYFPHYFHDMDVWGQGTLVTVSS
VL: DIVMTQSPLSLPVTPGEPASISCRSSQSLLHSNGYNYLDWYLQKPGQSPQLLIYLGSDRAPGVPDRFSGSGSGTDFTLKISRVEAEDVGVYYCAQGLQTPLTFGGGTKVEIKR
On to B3, for which the results for the equilibrium dissociation constant (Kd) in assay [1] and in assay [4] were below 0.05 µM and 0.0178 µM, respectively. Also, the binding result in assay [2] and in assay [3] was “no binding (tested: up to 300 nM)” each time. In assay [4], this molecule gave a koff of 0.00081 s⁻¹. In assay [4], this molecule had a kon of 45500 M⁻¹ s⁻¹.

B4: COVID19_P08_F07 (scFv, V domains shown)
VH: EVQLVESGGGLVQPGGSLRLSCAASGFIFTNYALHWVRQAPGKGLEWVSAISGSGGSTHYADSVKGRFTISRDNSKNTLYLQMNSLRAEDTAVYYCVTNLDNSRDYFPHYFHDMDVWGQGTLVTVSS
VL: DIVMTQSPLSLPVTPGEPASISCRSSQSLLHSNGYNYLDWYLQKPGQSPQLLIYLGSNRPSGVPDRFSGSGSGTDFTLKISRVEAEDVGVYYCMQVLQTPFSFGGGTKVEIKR
On to B4, for which the Kd in assay [1] was below 0.05 µM. The binding result in assay [2] and in assay [3] was “no binding (tested: up to 300 nM)” throughout.

B5: COVID19_P07_F11 (scFv, V domains shown)
VH: EVQLVESGGGLVQPGGSLRLSCAASGFTFSSYGMHWIRQAPGKGLEWVSAVSASGDRTHYADSVKGRFTISRDNSKNTLYLQMNSLRAEDTAVYYCVTNLDNSRDYFPHYFHDMDVWGQGTLVTVSS
VL: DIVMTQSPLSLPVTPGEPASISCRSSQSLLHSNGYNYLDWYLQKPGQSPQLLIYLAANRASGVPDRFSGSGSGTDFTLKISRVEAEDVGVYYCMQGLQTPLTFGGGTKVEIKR
Turning to B5, the dissociation constant Kd in assay [1] was below 0.05 µM. Moreover, the binding result in assay [2] and in assay [3] was “no binding (tested: up to 300 nM)” in each case.

B6: COVID19_P20_F08 (scFv, V domains shown)
VH: EVQLVESGGGLVQPGGSLRLSCAASGFTFSSYAMHWVRQAPGKGLEWVSVISASGGNTYYADSVKGRFTISRDNSKNTLYLQMNSLRAEDTAVYYCVTNLDNSRDYFPHYFHDMDVWGQGTLVTVSS
VL: DIVMTQSPLSLPVTPGEPASISCRSSRSLLHTNGLNYIDWYLQKPGQSPQLLIYLGSNRASGVPDRFSGSGSGTDFTLKISRVEAEDVGVYYCTQALQTPISFGGGTKVEIKR
Molecule B6 yielded an equilibrium dissociation constant (Kd) in assay [1] below 0.05 µM. Further, the binding result in assay [2] and in assay [3] was “no binding (tested: up to 300 nM)” in each case.

B7: COVID19_P08_C03 (scFv, V domains shown)
VH: EVQLVESGGGLVQPGGSLRLSCAASGFTFSSYAMHWVRQAPGKGLEWVAVISSSGRNKFYADSVKGRFTISRDNSKNTLYLQMNSLRAEDTAVYYCVTNLDNSRDYFPHYFHDMDVWGQGTLVTVSS
VL: not shown
B7 came in with a dissociation constant Kd in assay [1] below 0.05 µM. The binding result in assay [2] and in assay [3] was “no binding (tested: up to 300 nM)” each time.

B8: COVID19_P08_B11 (scFv, V domains shown)
VH: EVQLVESGGGLVQPGGSLRLSCAASGFTFSSYGMHWIRQAPGKGLEWVSAVSASGDRTHYADSVKGRFTISRDNSKNTLYLQMNSLRAEDTAVYYCVTNLDNSRDYFPHYFHDMDVWGQGTLVTVSS
VL: DIVMTQSPLSLPVTPGEPASISCRSSQSLLHSNGYNRLAWYLQKPGQSPQLLIYLGSYRASGVPDRFSGSGSGTDFTLKISRVEAEDVGVYYCMQALQTPSFGGGTKVEIKR
Take B8: the dissociation constant (Kd) in assay [1] was below 0.05 µM. The binding result in assay [2] and in assay [3] was “no binding (tested: up to 300 nM)” throughout.

B9: COVID19_P20_G06 (scFv, V domains shown)
VH: EVQLVESGGGLVQPGGSLRLSCAASGFTFSNSDMNWVRQAPGKGLEWVSGISGGGAGTYYADSVKGRFTISRDNSKNTLYLQMNSLRAEDTAVYYCVTYRDNSRDYFPHYFHDMDVWGQGTLVTVSS
VL: DIVMTQSPLSLPVTPGEPASISCRSSQSLVHSNGDTYLDWYLQKPGQSPQLLIYLGSIRAPGVPDRFSGSGSGTDFTLKISRVEAEDVGVYYCQQSYSTPWTFGGGTKVEIKR
In turn, B9 gave a Kd in assay [1] below 0.05 µM. Also, in assay [2], the binding result was “no binding (tested: up to 300 nM)”. In assay [3], the binding result is given as “no binding (tested: up to 300 nM)”. For the same molecule, in assay [4], binding was characterised by a dissociation constant (Kd) of 0.00895 µM, the koff was 0.000834 s⁻¹ and the kon worked out at 93200 M⁻¹ s⁻¹.

B10: COVID19_P19_B09 (scFv, V domains shown)
VH: EVQLVESGGGLVQPGGSLRLSCAASGFTFSSHTIAWVRQAPGKGLEWLSHISSSGSTTYYADSVKGRFTISRDNSKNTLYLQMNSLRAEDTAVYYCVTQRDNSRDMSPHYFHDMDVWGQGTLVTVSS
VL: DIVMTQSPLSLPVTPGEPASISCRSSQSLLDSNGFNYLDWYLQKPGQSPQLLIYLGSSRAPGVPDRFSGSGSGTDFTLKISRVEAEDVGVYYCQQSYNTPWTFGGGTKVEIKR
The molecule B10 came in with a dissociation constant Kd in assay [1] below 0.05 µM. The binding result in assay [2] is “no binding (tested: up to 300 nM)”. In addition, the binding result in assay [3] is given as “no binding (tested: up to 300 nM)”. In assay [4], this molecule came in with a Kd of 0.0159 µM, an off-rate (koff) of 0.00313 s⁻¹ and an on-rate constant (kon) of 197000 M⁻¹ s⁻¹.

B11: COVID19_P19_E01 (scFv, V domains shown)
VH: EVQLVESGGGLVQPGGSLRLSCAASGFTFSSYAMHWVRQAPGKGLEWVAVVSRSGGSTFYADSVKGRFTISRDNSKNTLYLQMNSLRAEDTAVYYCVTQRDNSRDYFPHYFHDMDVWGQGTLVTVSS
VL: DIVMTQSPLSLPVTPGEPASISCRSSQSLVHSNGDTYLDWYLQKPGQSPQLLIYLGSIRAPGVPDRFSGSGSGTDFTLKISRVEAEDVGVYYCQQSYSTPWTFGGGTKVEIKR
On to B11, for which the dissociation constant (Kd) was below 0.05 µM in assay [1] and 0.0417 µM in assay [4]. Moreover, the binding result in assay [2] and in assay [3] was “no binding (tested: up to 300 nM)” each time. The off-rate constant (koff) in assay [4] was found to be 0.00644 s⁻¹. In assay [4], the kon was 155000 M⁻¹ s⁻¹.

B12: COVID19_P19_C03 (scFv, V domains shown)
VH: EVQLVESGGGLVQPGGSLRLSCAASGFTFSNSDMNWVRQAPGKGLEWVSRINGDGSTTGYADSVKGRFTISRDNSKNTLYLQMNSLRAEDTAVYYCVTTGDNSRDYFPHYFHDMDVWGQGTLVTVSS
VL: DIVMTQSPLSLPVTPGEPASISCRSSQSLLHSNGDTYLDWYLQKPGQSPQLLIYLGSIRAPGVPDRFSGSGSGTDFTLKISRVEAEDVGVYYCQQSYITPWTFGGGTKVEIKR
B12: the dissociation constant (Kd) in assay [1] was below 0.05 µM; in assay [4], 0.0353 µM. Moreover, the binding result in assay [2] and in assay [3] was “no binding (tested: up to 300 nM)” in each case. This molecule also had an off-rate (koff) in assay [4] of 0.0058 s⁻¹. The on-rate (kon) in assay [4] was found to be 164000 M⁻¹ s⁻¹.

B13: COVID19_P07_D04 (scFv, V domains shown)
VH: EVQLVESGGGLVQPGGSLRLSCAASGFRFSDHPMHWVRQAPGKGLEWVAVITGSGRNKFYADSVKGRFTISRDNSKNTLYLQMNSLRAEDTAVYYCVTNMDNSRDYFPHYFHDMDVWGQGTLVTVSS
VL: DIVMTQSPLSLPVTPGEPASISCRSSQSLLHRNGYNYLDWYLQKPGQSPQLLIYGASTRATGVPDRFSGSGSGTDFTLKISRVEAEDVGVYYCTQSLQTPLTFGGGTKVEIKR
For B13, the binding result in assay [2] was “no binding (tested: up to 300 nM)”. For the same molecule, the binding result in assay [3] was “no binding (tested: up to 300 nM)”. In assay [4], the affinity, expressed as Kd, was 0.0023 µM; the koff was found to be 5.7e-05 s⁻¹; the on-rate (kon) came out at 24400 M⁻¹ s⁻¹.

B14: COVID19_P07_G06 (scFv, V domains shown)
VH: EVQLVESGGGLVQPGGSLRLSCAASGFTFSSYAMHWVRQAPGKGLEWVSAIGAGGGTYYADSVKGRFTISRDNSKNTLYLQMNSLRAEDTAVYYCVTNLDNSRDYFPHYFHDMDVWGQGTLVTVSS
VL: DIVMTQSPLSLPVTPGEPASISCRSSQSLLHSNGYNYLDWYLQKPGQSPQLLIYGASTRATGVPDRFSGSGSGTDFTLKISRVEAEDVGVYYCMQTLQTPRFGGGTKVEIKR
As for B14, the Kd was below 0.05 µM in assay [1] and 0.0016 µM in assay [4]. Also, the binding result in assay [2] and in assay [3] was “no binding (tested: up to 300 nM)” each time. Also, the dissociation rate constant (koff) in assay [4] was 5.7e-05 s⁻¹. In assay [4], this molecule gave an on-rate constant (kon) of 36300 M⁻¹ s⁻¹.

B15: COVID19_P07_D08 (scFv, V domains shown)
VH: EVQLVESGGGLVQPGGSLRLSCAASGFTFRNYAMHWVRQAPGKGLEWVSAIGTGGDTYYADSVKGRFTISRDNSKNTLYLQMNSLRAEDTAVYYCVTNMDNSRDYFPHYFHDMDVWGQGTLVTVSS
VL: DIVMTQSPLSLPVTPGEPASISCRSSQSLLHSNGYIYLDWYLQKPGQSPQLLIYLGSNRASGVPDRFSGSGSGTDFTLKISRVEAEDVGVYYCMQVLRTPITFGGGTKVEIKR
Turning to B15, the binding result in assay [2] is “no binding (tested: up to 300 nM)”. For the same molecule, the binding result in assay [3] was “no binding (tested: up to 300 nM)”. Besides, in assay [4], the dissociation constant (Kd) was 0.0017 µM, the koff was 5.7e-05 s⁻¹ and the kon was found to be 34100 M⁻¹ s⁻¹.
